Experimental data: PMC11162469, “Discovery of RXFP2 genetic association in resistant hypertensive men and RXFP2 antagonists for the treatment of resistant hypertension” (Scientific Reports, 2024)
Bridge positions count the residues as written; N and C are the ends. Ends that are not written are not given here. I, II: the chains in the order shown.

Assays:
[1] = molecular target: rat relaxin family peptide receptor 2 (RXFP2) (rat) (UniProt Q5ECL0)
[2] = molecular target: rat relaxin family peptide receptor 2 (RXFP2) (rat) (UniProt Q5ECL0); remark: listed apart in the source
[3] = molecular target: human relaxin family peptide receptor 2 (RXFP2) (human) (UniProt Q8WXD0)
Chain of human relaxin family peptide receptor 2 (RXFP2) (human) (Q8WXD0 whole entry): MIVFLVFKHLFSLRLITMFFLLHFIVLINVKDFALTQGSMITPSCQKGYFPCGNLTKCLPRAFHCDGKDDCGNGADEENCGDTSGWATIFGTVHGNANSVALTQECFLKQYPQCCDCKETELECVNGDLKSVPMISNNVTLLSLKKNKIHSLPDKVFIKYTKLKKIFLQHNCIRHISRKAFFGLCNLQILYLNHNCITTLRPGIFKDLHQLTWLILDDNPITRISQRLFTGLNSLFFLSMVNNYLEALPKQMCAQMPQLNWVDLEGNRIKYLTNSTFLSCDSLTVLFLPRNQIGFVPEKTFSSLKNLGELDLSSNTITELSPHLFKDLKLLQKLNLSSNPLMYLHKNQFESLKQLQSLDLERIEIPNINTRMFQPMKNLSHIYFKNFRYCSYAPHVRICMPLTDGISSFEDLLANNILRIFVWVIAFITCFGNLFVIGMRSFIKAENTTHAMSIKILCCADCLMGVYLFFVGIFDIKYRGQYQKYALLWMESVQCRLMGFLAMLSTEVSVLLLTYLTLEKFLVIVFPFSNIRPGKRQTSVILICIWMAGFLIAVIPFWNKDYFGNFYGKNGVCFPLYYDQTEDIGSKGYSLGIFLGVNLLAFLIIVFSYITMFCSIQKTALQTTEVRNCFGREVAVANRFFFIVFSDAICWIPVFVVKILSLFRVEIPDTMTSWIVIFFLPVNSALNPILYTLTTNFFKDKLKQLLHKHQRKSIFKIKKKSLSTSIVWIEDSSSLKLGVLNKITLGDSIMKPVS

[4] = molecular target: rat relaxin family peptide receptor 2 (RXFP2) (rat) (UniProt Q5ECL0); remark: listed apart in the source
[5] = molecular target: rat relaxin family peptide receptor 2 (RXFP2) (rat) (UniProt Q5ECL0); remark: listed apart in the source

Chain of rat relaxin family peptide receptor 2 (RXFP2) (rat) (Q5ECL0 entry or part of it): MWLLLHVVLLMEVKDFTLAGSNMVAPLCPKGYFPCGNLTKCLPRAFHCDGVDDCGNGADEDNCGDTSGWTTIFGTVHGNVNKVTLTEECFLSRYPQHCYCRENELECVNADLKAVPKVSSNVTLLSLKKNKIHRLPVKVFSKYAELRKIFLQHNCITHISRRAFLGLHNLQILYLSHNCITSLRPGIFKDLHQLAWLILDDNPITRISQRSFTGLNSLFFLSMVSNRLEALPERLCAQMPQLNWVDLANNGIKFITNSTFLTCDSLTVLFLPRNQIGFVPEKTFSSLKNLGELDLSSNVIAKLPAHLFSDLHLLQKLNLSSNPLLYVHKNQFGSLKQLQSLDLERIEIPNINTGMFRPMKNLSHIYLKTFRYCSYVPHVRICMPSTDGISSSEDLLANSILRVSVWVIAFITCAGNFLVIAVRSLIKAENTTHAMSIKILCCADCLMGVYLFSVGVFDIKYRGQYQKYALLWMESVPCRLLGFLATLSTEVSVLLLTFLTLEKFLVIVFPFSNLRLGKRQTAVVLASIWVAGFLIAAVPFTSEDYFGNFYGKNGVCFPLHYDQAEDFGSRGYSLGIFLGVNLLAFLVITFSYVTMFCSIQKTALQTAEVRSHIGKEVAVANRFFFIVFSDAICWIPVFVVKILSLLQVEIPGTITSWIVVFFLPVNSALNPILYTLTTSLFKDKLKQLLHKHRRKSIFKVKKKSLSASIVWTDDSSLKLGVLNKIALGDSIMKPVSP

Binder | EC50, aldosterone secretion (ELISA) from H295R cells stably expressing rat RXFP2 [1] | EC50, cortisol secretion (ELISA) from H295R cells stably expressing rat RXFP2 [2] | IC50, INSL3 (EC80)-stimulated cAMP in HEK293 stably expressing human RXFP2 [3] | % Max Response, INSL3 (EC80)-stimulated cAMP in HEK293 stably expressing rat RXFP2 [4] | IC50, INSL3 (EC80)-stimulated cAMP in HEK293 stably expressing rat RXFP2 [4] | IC50, INSL3-stimulated CYP11B1 mRNA in H295R stably expressing rat RXFP2 [4] | IC50, INSL3-stimulated CYP11B2 mRNA in H295R stably expressing rat RXFP2 [4] | IC50, INSL3-induced cortisol release (ELISA) from H295R stably expressing rat RXFP2 [5] | IC50, INSL3-induced aldosterone release (ELISA) from H295R stably expressing rat RXFP2 [5] | % Max Response, INSL3 (EC80)-stimulated cAMP in HEK293 stably expressing human RXFP2 [3]
Rat INSL3 (ligand, disulfide I:10-I:15, I:11-II:14, I:24-II:26) chain 1: SVATNAVHRCCLTGCTQQDLLGLCPH chain 2: LRSPQPPEARAKLCGHHLVRALVRVCGGPRWSPEA | 2.2 nM | 0.16 nM |  |  |  |  |  |  |  | 
RXFP2 mAb 4H1 (antibody, V domains shown) VH: QIQLVQSGPELKKPGETVKISCKTSGYTFTKYPMHWVKQAPGEGLKWMGWINTYSGLPTFADDFKGRFAFSLETSANTADLQINNLKNEDMATYFCAREGKKLSGYFDYWGQGTTLTVSS VL: DIKMTQSPSSMYASLGERVTITCKASQDINSYLTWFQQKPGQSPKTLIYRANRFVDGVPSRFSGSGSGQDYSLTITSLEYEDMGIYYCLQYDEFPYTFGGGTQLEIK |  |  | 218 nM | 69.7% | 150 nM |  |  |  |  | 
RXFP2 mAb 3F3 (antibody, V domains shown) VH: QVQLQQPGSVLVRPGASVKLSCKASGYIFTSYWMHWVKQRPGQGLEWIGEIYPNSGRTSYNEKFKGKATVTVDTSSSTAYVDLSSLTSEDSAVYYCASGGHWFAYWGQGTLVTVSA VL: DIQMTQSSSSFSVSLGDRVTITCKASEDIYNRLAWYQQKPGNAPRLLISGATSLEAGVPSRFSGSGSGKDYTLSITSLQTEDVSTYYCQQYWITPYTFGGGTKLEIK |  |  |  | 78.5% | 37 nM | 3.85 nM | 0.51 nM |  |  | 
RXFP2 mAb 1G1 (antibody, V domains shown) VH: EVQLQQSGPELVKPGASVKMSCKASGYTFTDYNMHWVKQKPGQGLEWIGYINPYNDGTEYNEKFKGKATLTSDKSSSTAYMDLSSLTSEDSAVYYCARGLWFAMNYWGQGTSVTVSS VL: DIQMTQSSSSFSVSLGDRVTITCKASEDIYNRLAWYQQKPGNTPRLLISGATILETGVPSRFSGSGSGKDYTLSIISLQTEDVATYYCQQYWIIPPTFGGGTKLEIK |  |  |  | 87.2% | 28 nM | 0.27 nM | 0.17 nM |  |  | 
RXFP2 mAb 1F2 (antibody, V domains shown) VH: QVQLKQSGPGLVQPSQSLSITCTVSGFSLTAYGVNWVRQSPGKGLEWLGVIWSGGNTDYNAPFISRLSITKDNSKSQVFFKMNSLEADDTAIYYCARAKGYYAMDYWGQGTSVTVSS VL: DIQMTQSPASLSVSVGESVTITCRATENIYSNLVWYQQKQGQSPQLLVYAVTSLADGVPSRFSGSGSGTQYSLKINSLQSEDFGTYYCQHFWGTPYTFGGGTKLEIK |  |  | 405 nM | 76.1% | 19.1 nM | 0.32 nM | 0.1 nM | 0.21 nM |  | 
RXFP2 mAb 3H1 (antibody, V domains shown) VH: QVQLKETGPGLVAPSQSLSITCTVSGFSLTNYGVNWVRQPPGKGLEWLVVIWSDGSTNYNSALKSRLSISKDNSKSQVFLKMNSLQTDDTAMYYCARQQGYYAMDYWGQGTSVIVSS VL: DIQMTQSPASLSVSVGETVTITCRASENIYSNLAWYQQKQGKSPQLLVYAVTNLADGVPSRFSGSGSGTQYSLKINSLQSEDFGSYYCQHFWGPPYTFGGGTKLEIK |  |  |  | 71.6% | 15.8 nM | 0.33 nM | 0.16 nM |  |  | 
RXFP2 mAb 3G4 (antibody, V domains shown) VH: QVQLKESGPGLVAPSQSLSITCTVSGFSLTSYGVSWVRQPPGKGLEWLGVIWGDGSTNYHSALISRLSISKDNSKSQVFLKLNSLQTDDTATYYCAKSLGYYAMDYWGQGTSVTVSS VL: DIQMTQSPASLSVSVGETVTITCRASENIYSNLVWYQQKQGKSPQLLVYAATNLAEGVPSRFSGSGSGTQYSLKINSLQSEDFGSYYCQHFWGPPWTFGGGTKLEIK |  |  |  | 83.3% | 16.1 nM | 0.33 nM | 0.2 nM |  |  | 
RXFP2 mAb 4B8 (antibody, V domains shown) VH: QVQLKQSGPGLVQPSQSLSITCTVSGFSLSRYGVHWVRQSPGKGLEWLGVIWSGGSTEYNAVFKSRLSISKDNSKSQVFFKMNSLQANDTAIYYCVRADGYYAMEYWGQGTSVTVSS VL: DIQMTQSPASLSVSVGETVTITCRASENIYSNLAWYQQKQGKSPQLLVYAVTNLADGVPSRFSGSGSGTQYSLKINSLQSEDFGNYYCQHFWGTPYTFGGGTKLEIK |  |  | 116 nM | 86.6% | 21.4 nM | 0.23 nM | 0.17 nM |  |  | 
RXFP2 mAb 2D4 (antibody, V domains shown) VH: QVQLKESGPGLVAPSQSLSITCTVSGFSLTTYGISWVRQPPGKGLEWLGVIWTGGGTNYNSALKSRLSISKDNSKSQVFLKMNSLQTDDTARYYCARTEGYYVMDYWGQGTSVTVSS VL: DIQMTQSPASLSVSVGETVTITCRASENIYSNLVWYQQKQGKSPQLLVYAATNLADGVPSRFSGSGSGTQYSLKINNLQSEDFGTYYCQHFWGPPWTFGGGTKLEIK |  |  | > 1000 nM | 86.8% | 21 nM | 0.14 nM | 0.11 nM | 0.17 nM | 0.05 nM | 
RXFP2 mAb 3F1 (antibody, V domains shown) VH: QVQLKESGPGLVAPSQSLSITCTVSGFSLTDYGVSWIRQPPGKGLEWLGVIWGGGSTDYNPALKSRLSISKDNSKSQVFLKMNSLQADDTAMYYCVKHEGYYAMDYWGQGTSVTVSS VL: DIQMTQSPASLSVSVGETVTITCRASENIYSNLAWYQQKQGKSPHLLVYAVTNLADGVPSRFSGSGSGTQYSLKINSLQSEDFGSYYCQHFWGTPYTFGGGTKLEIK |  |  | 589 nM | 69.7% | 19.9 nM | 0.27 nM | 0.23 nM |  |  | 
RXFP2 mAb 4H2 (antibody, V domains shown) VH: QVQLRQSGPSLVQPSQSLSITCTVSGFSLTNYGVHWVRQSPGKGLEWLGVIWRGGNTDHNAAFMSRLSITKDNSESQVFFKMNSLQVDDTAIYYCAKAEGYYALDYWGQGTSVTVYS VL: DIQMTQSPASLSVSVGETVTITCRASENIYSNLAWYQQKQGKSPQLLVYAVTNLADGVPSRFSGSGSGTQYSLKINSLQSEDFGSYYCQHFWGTPWTFGGGTKLEIK |  |  |  | 85.7% | 18.9 nM | 0.26 nM | 0.13 nM |  |  | 
RXFP2 mAb 4H5 (antibody, V domains shown) VH: QVQLKQSGPGLVQPSQSLSITCTVSGFSLTNYGVHWVRQSPGKGLEWLGVIWRDGNTDYNAAFMSRLSITKDNSKSQVFFEMNSLQVDDTAIYYCCRGDGYYAMGYWGQGTSVTVSS VL: DIQMTQSPASLSVSVGETVTITCRASENIYSNLAWYQQRQGRSPQLLVYAATNLADGVPSRFSGSGSGTQYSLKINSLQSEDFGNYYCQHFWGSPRTFGGGTKLEIK |  |  |  | 89.2% | 14.2 nM | 0.21 nM | 0.15 nM |  |  | 
RXFP2 mAb 4G6 (antibody, V domains shown) VH: EVQLQQSGPELVKPGASVKLSCKASGYTFTSYVMHWVKQKPEQGLEWIGYKNPSNDGIKYNEKFKGKATLTSDKSSNIAYMELFSLTSEDSAVYYCARSDFGSVWAMDYWGQGTSVTVSS VL: SIVMTQTPKFLLVSAGDRVTITCKASQSVNDDIVWYQQKPGQSPKLLIYYASNRYTGVPDRFTGSGYGTDFTFTISTVQAGDLAVYFCQQDYSSPFTFGSGTKLEIK |  |  | 15.6 nM | 82.5% | 14.1 nM | 0.33 nM | 0.1 nM | 0.26 nM |  | 84.5%
RXFP2 mAb 4F6 (antibody, V domains shown) VH: EVQLQQSGPELVKPGASVKMSCKASGYTFTNYVLHWVKQKPGQGLEWIGYINPYNDGSKYNEKFKGRATLTSDKSSSTAYMELSSLTSEDSAVYYCARGGWLLDYFDYWGQGTTLTVSS VL: DVLMTQSPLSLPVSLGEQASISCRSSQSIVHSDGDTYLEWYLQKPGQSPNLLIYKVSNRFSGVPDRFSGSGSGTDFTLKISRVEAEDLGVYYCFQGSHVPPTFGGGTKLEIK |  |  | 354 nM | 80.4% | 48.5 nM |  |  |  |  | 82.7%
RXFP2 mAb 4A5 (antibody, V domains shown) VH: DVQLVESGGGLVQPGGSRKLSCAASGFTFSTFGMHWVRQAPEKGLEWVAYISSGSSTIYYADTVKGRFTISRDNPKNTLFLQMTSLRSDDTAMYYCSRSYYGSAHYFDYWGQGTTLTVSS VL: DIQMTQSPASLSVSVGETVTITCRASENIYSNLAWYQQKQGKSPQLLVYVATNLADGVPSRFSGSGSGTQYSLRINNLQSEDFGNYYCQHFWGTPPTFGGGTKLEIK |  |  |  | 91% | 23.2 nM | 2.85 nM | 0.31 nM |  |  | 
